Assay results taken from paper PMC4980433 (Molecular Cell, 2016).

B1: TNKS SAM domain (1,018-1,093), wild type [human] / itself (parent)
chain: ERKEGEVAGLDMNISQFLKSLGLEHLRDIFETEQITLDVLADMGHEELKEIGINAYGHRHKLIKGVERLLGGQQGT

Variants of: B1
Assay: SEC-MALS
Details: with itself; 0.5 mM; n = 2

First: chain 1 V39W
Second: chain 1 Y56A
The screen value of the first is higher: 10.6 kDa for the first, 10.4 kDa for the second.

chain 1 V39W Y56A showed a screen value of 9.3 kDa.
